{"source": "patent US20180086841A1", "about": "(Merck Sharp & Dohme, published 2018)", "experiment_in_all_cases": "flow cytometry on CHO-K1 transfectants, left sub-column", "key": {"F28A": {"molecular_target": "T1, F28A", "T1 construct": "also called hCD27 F28A", "T1 receptor chain": "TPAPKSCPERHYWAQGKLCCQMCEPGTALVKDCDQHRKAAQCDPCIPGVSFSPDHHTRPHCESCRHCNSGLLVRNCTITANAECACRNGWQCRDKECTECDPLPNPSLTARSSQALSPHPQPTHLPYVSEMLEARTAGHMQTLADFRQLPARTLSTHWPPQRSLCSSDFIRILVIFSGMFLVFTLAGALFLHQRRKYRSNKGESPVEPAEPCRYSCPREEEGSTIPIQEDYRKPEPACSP", "method": "(§1) The hCD27 variants that were tested are listed. Amino acids correspond to the UniProt P26842-1 sequence. Amino acids 1-20 constitute the signal peptide. Binding is expressed as the geometric mean of the FITC signal, relative to antibody binding to hCD27, which was set at 100%.\n(§2) The ability of several anti-hCD27 antibodies to bind to a series of hCD27 alanine mutants was determined using CHO-K1 cells, transiently transfected pCI-neo empty vector, pCI-neo.hCD27 and several pCI-neo.CD27Ala mutant constructs.\n(§3) Detached cells were transferred to 96 wells round-bottomed well plates at approximately 1.2×10⁵ cells/well. After spinning down the cells, discarding the supernatants and re-suspending the cells in the residual volume, the primary antibodies were added and incubated for 30 minutes at 4° C. Cells were washed three times with DPBS/BSA 1%, followed by centrifugation, discarding of the supernatants and re-suspension in the residual volume. […] After washing once, antibody binding was detected using the HTS plate reader (FACS Canto II) and FlowJo software for data analysis. Debris, dead cells and doublets were excluded from the analysis. Binding was expressed as the geometric mean of the FITC signal, relative to antibody binding to hCD27, which was set at 100%."}, "W90A": {"molecular_target": "T2, W90A", "T2 construct": "also called hCD27 W90A", "T2 receptor chain": "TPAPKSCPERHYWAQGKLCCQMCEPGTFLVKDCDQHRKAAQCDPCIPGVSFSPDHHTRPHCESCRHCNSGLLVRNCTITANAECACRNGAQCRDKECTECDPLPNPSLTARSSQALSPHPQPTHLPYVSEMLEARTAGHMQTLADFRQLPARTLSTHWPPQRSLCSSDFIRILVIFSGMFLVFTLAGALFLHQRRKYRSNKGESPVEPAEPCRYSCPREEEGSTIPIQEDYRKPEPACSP", "method": "as §1, §2, §3"}, "Q41A": {"molecular_target": "T3, Q41A", "T3 construct": "also called hCD27 Q41A", "T3 receptor chain": "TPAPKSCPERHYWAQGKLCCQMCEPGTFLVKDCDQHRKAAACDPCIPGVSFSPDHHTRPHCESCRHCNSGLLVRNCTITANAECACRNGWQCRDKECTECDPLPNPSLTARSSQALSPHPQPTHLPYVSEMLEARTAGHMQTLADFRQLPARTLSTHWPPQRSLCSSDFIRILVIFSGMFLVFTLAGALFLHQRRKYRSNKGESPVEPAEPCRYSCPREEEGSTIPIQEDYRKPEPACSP", "method": "as §1, §2, §3"}, "P44A": {"molecular_target": "T4, P44A", "T4 construct": "also called hCD27 P44A", "T4 receptor chain": "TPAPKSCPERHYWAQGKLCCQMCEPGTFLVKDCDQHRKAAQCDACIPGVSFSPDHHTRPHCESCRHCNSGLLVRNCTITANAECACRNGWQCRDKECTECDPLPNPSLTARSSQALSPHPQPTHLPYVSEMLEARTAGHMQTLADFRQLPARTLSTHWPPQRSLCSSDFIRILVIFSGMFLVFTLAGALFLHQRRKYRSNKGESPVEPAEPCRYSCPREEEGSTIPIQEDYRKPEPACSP", "method": "as §1, §2, §3"}, "G16A": {"molecular_target": "T5, G16A", "T5 construct": "also called hCD27 G16A", "T5 receptor chain": "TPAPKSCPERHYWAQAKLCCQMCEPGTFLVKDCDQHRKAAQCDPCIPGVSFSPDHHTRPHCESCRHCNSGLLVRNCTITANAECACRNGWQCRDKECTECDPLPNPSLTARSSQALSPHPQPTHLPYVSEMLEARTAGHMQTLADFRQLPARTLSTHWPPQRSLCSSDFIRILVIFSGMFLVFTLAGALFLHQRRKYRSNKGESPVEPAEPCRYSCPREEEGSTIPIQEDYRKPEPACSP", "method": "as §1, §2, §3"}, "R93A": {"molecular_target": "T6, R93A", "T6 construct": "also called hCD27 R93A", "T6 receptor chain": "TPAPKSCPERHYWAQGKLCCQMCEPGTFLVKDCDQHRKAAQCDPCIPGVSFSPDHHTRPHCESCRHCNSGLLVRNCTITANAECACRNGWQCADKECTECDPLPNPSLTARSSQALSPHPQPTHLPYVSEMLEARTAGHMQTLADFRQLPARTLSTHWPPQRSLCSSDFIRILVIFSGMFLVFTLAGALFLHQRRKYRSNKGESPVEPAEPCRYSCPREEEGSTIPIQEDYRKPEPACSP", "method": "as §1, §2, §3"}, "K17A": {"molecular_target": "T7, K17A", "T7 construct": "also called hCD27 K17A", "T7 receptor chain": "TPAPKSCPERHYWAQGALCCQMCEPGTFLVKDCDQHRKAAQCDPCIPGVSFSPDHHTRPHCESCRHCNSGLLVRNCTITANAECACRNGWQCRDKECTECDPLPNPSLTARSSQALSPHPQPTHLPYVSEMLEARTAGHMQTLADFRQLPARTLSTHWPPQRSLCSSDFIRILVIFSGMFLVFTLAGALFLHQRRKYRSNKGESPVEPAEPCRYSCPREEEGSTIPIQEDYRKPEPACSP", "method": "as §1, §2, §3"}, "G89A": {"molecular_target": "T8, G89A", "T8 construct": "also called hCD27 G89A", "T8 receptor chain": "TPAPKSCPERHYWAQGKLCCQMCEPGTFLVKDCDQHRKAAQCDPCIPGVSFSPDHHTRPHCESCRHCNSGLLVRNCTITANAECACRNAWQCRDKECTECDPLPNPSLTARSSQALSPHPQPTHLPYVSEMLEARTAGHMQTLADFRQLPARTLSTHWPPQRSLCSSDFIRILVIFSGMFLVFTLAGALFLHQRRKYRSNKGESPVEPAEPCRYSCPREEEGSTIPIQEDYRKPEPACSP", "method": "as §1, §2, §3"}, "V30A": {"molecular_target": "T9, V30A", "T9 construct": "also called hCD27 V30A", "T9 receptor chain": "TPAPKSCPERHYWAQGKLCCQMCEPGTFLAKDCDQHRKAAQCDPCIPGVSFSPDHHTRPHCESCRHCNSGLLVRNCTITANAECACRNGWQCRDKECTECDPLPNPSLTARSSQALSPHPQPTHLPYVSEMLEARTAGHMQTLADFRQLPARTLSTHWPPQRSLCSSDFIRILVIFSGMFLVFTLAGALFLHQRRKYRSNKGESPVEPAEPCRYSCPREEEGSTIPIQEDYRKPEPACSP", "method": "as §1, §2, §3"}, "D43A": {"molecular_target": "T10, D43A", "T10 construct": "also called hCD27 D43A", "T10 receptor chain": "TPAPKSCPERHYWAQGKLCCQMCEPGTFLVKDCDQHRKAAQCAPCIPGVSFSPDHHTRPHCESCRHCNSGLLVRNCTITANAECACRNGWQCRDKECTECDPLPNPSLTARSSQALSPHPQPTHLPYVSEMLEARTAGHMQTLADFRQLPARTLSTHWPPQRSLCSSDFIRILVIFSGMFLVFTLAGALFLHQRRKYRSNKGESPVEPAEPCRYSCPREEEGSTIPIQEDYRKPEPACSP", "method": "as §1, §2, §3"}}, "data": [{"binder": "hCD27.131A (mouse parental 131A) (antibody, mouse IgG1, V domains shown, Mouse IgG1 antibody; also called mouse hCD27.131A) VH: QIQLVQSGPELKKPGETVKISCKASGYTFTNYGMNWVKQAPGKGLKWMGWINTNTGEPTYAEEFKGRFAFSLETSATTAYLQINNLKNEDTATYFCAREGDAMDYWGQGTSVTVSS VL: QIVLTQSPAIMSASPGEKVTMTCSASSSVSYMHWYQQKSGTSPKRWIYDTSKLASGVPARFSGSGSGTSYSLTISSMEAEDAATYYCQQWNSYPFTFGSGTKLEIK", "values": [{"measurement": "binding, WT hCD27 = 100 (GM FITC)", "setting": "F28A", "value": 106, "unit": "%"}, {"measurement": "binding, WT hCD27 = 100 (GM FITC)", "setting": "W90A", "value": 126, "unit": "%"}, {"measurement": "binding, WT hCD27 = 100 (GM FITC)", "setting": "Q41A", "value": 108, "unit": "%"}, {"measurement": "binding, WT hCD27 = 100 (GM FITC)", "setting": "P44A", "value": 158, "unit": "%"}, {"measurement": "binding, WT hCD27 = 100 (GM FITC)", "setting": "G16A", "value": 94.8, "unit": "%"}, {"measurement": "binding, WT hCD27 = 100 (GM FITC)", "setting": "R93A", "value": 125, "unit": "%"}, {"measurement": "binding, WT hCD27 = 100 (GM FITC)", "setting": "K17A", "value": 103, "unit": "%"}, {"measurement": "binding, WT hCD27 = 100 (GM FITC)", "setting": "G89A", "value": 113, "unit": "%"}, {"measurement": "binding, WT hCD27 = 100 (GM FITC)", "setting": "V30A", "value": 170, "unit": "%"}, {"measurement": "binding, WT hCD27 = 100 (GM FITC)", "setting": "D43A", "value": 194, "unit": "%"}]}]}
